These results are taken from article PMC6135743.

Test [1] has as its target B41 SOSIP.664 soluble Env trimer (HIV-1 strain B41 (subtype B)). Kind of test: native gel or EMSA. For orientation: In EMSA bound probe runs differently from free probe, usually more slowly.
Test [2] deals with B41 viral Env trimer from infectious virus (HIV-1 strain B41 (subtype B)). Kind of test: native gel or EMSA.
Test [3] deals with B41 ΔCT membrane-bound Env trimer (HIV-1 strain B41 (subtype B)). Kind of test: native gel or EMSA.
Test [4] addresses BG505 N332 SOSIP.664 soluble Env trimer (HIV-1 strain BG505 (subtype A)). Kind of test: native gel or EMSA.
Test [5] addresses BG505 viral Env trimer from infectious virus (HIV-1 strain BG505 (subtype A)). Kind of test: native gel or EMSA.
For test [6], the target named is BG505 ΔCT N332 membrane-bound Env trimer (HIV-1 strain BG505 (subtype A)). Kind of test: native gel or EMSA.
Test [7] addresses BG505 ΔCT T332 membrane-bound Env trimer (HIV-1 strain BG505 (subtype A)). Kind of test: native gel or EMSA.
Test [8] concerns the target JR-FL E168K SOSIP.664 soluble Env trimer (HIV-1 strain JR-FL (subtype B)) (UniProt Q75760). Kind of test: native gel or EMSA.
Test [9] has as its target JR-FL viral Env trimer from infectious virus (HIV-1 strain JR-FL (subtype B)). Kind of test: native gel or EMSA.
Test [10] deals with JR-FL ΔCT membrane-bound Env trimer (HIV-1 strain JR-FL (subtype B)) (UniProt Q75760). Kind of test: native gel or EMSA.
For test [11], the target named is BG505 ΔCT T332 membrane-bound Env trimer (HIV-1 strain BG505 (subtype A)). Kind of test: cryo-EM structure.
The target of test [12] is B41 viral Env trimer from infectious virus (HIV-1 strain B41 (subtype B)).

Bounds are passed on as bounds.

For “B41 SOSIP.664 soluble Env trimer (complex)”, the stoichiometry N (usually the number of molecules, sites or subunits per partner or assembly) in test [1] is 3. In [2], “B41 viral Env trimer from infectious virus (complex)” had a stoichiometry N of 3. In test [3], “B41 ΔCT membrane-bound Env trimer (complex)” had a stoichiometry N of 3.

“BG505 N332 SOSIP.664 soluble Env trimer (complex)” registered a stoichiometry N in [4] of 3. The molecule “BG505 viral Env trimer from infectious virus (complex)” showed a stoichiometry N in test [5] of 3. “BG505 ΔCT N332 membrane-bound Env trimer (complex)” gave a stoichiometry N in [6] of 3.

For the molecule “BG505 ΔCT T332 membrane-bound Env trimer (complex)”, in [7], the stoichiometry N amounted to 3. In test [8], “JR-FL E168K SOSIP.664 soluble Env trimer (from UniProt Q75760 1-847) (complex)” returned a stoichiometry N of 3. In turn, “JR-FL viral Env trimer from infectious virus (complex)” showed a stoichiometry N in test [9] of 3. Regarding “JR-FL ΔCT membrane-bound Env trimer (from UniProt Q75760 1-847) (complex)”, in test [10], the stoichiometry N came to 3. In [11], PGT151 Fab came in with a stoichiometry N (Fabs per trimer) below 2.

B1: PGT151 monoclonal antibody (bnAb) (antibody, V domains shown)
VH: RVQLVESGGGVVQPGKSVRLSCVVSDFPFSKYPMYWVRQAPGKGLEWVAAISGDAWHVVYSNSVQGRFLVSRDNVKNTLYLEMNSLKIEDTAVYRCARMFQESGPPRLDRWSGRNYYYYSGMDVWGQGTTVTVSS
VL: DIVMTQTPLSLSVTPGQPASISCKSSESLRQSNGKTSLYWYRQKPGQSPQLLVFEVSNRFSGVSDRFVGSGSGTDFTLRISRVEAEDVGFYYCMQSKDFPLTFGGGTKVDLK
In test [12], B1 showed a neutralisation of B41 virus, maximal percent (Supplementary Figure 5) below 75%.
